According to publication PMC10715077:

Target: recombinant PGI protein (pGEX-4T-PGI) (Ganoderma lucidum)
Assay: SPR; Biacore T200, NTA sensor chip; PGI immobilised, TLP2 as analyte at 0-400 µM (legend: 0-400 nM); 50 mM HEPES pH 7.5, 150 mM NaCl, 0.1% Tween 20

recombinant TLP2 protein (pColdI-TLP2) (natural protein)
Kd: 2210 nM
